In publication PMC9482650, “Quantitative fragmentomics allow affinity mapping of interactomes” (Nature Communications, 2022):
Values belong to the binder of their own block, whether it stands above or below them.

Experiments:
Test in all cases: holdup assay
Design in all cases: key: below the threshold = too weak to quantify, mostly under pKd 3.1 to 4
[1] = target: T1, APBA1_1, Q02410
T1 sequence (Q02410 651-752, limits assumed, looked up): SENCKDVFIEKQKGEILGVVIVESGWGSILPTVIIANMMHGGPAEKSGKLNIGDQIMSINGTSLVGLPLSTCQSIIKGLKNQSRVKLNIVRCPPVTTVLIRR

[2] = target: CASK, O14936
Sequence of CASK, O14936 (O14936 487-570): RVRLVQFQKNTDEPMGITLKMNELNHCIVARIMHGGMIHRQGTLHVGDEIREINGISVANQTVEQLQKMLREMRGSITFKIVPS

[3] = target: T2, DLG3_3, Q92796
T2 sequence (Q92796 374-475, limits assumed, looked up): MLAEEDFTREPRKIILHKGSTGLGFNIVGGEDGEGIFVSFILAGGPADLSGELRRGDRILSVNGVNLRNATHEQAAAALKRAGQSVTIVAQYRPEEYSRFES

[4] = target: FRMPD3, Q5JV73
Sequence of FRMPD3, Q5JV73 (Q5JV73 12-100): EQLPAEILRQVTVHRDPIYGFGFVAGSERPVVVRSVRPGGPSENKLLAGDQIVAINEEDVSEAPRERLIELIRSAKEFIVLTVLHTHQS

[5] = target: GOPC, Q9HD26
[6] = target: GORASP2, Q9H8Y8
[7] = target: GRID2IP_1, A4D2P6
Sequence of GRID2IP_1, A4D2P6 (A4D2P6 1-87): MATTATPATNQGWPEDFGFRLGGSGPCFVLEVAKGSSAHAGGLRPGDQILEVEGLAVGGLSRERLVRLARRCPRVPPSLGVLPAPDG

[8] = target: GRID2IP_2, A4D2P6
Sequence of GRID2IP_2, A4D2P6 (A4D2P6 272-370): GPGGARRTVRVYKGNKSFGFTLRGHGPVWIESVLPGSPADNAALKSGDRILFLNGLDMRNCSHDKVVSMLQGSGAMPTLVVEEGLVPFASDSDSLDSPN

[9] = target: HTRA2, O43464
Sequence of HTRA2, O43464 (O43464 355-458): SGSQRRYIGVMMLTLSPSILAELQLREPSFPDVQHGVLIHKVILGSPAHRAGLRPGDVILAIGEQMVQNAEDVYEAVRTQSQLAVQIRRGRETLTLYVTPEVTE

[10] = target: IL16_4, Q14005
Sequence of IL16_4, Q14005 (Q14005 1229-1329): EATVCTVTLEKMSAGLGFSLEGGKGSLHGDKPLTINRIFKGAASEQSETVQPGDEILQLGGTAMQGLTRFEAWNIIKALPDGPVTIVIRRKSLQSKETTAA

[11] = target: Inadl_3, Q8NI35
Sequence of Inadl_3, Q8NI35 (Q8NI35 359-469): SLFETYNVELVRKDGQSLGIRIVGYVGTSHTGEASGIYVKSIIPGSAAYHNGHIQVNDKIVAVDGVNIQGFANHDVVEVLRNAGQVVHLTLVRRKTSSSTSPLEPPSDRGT

[12] = target: Inadl_9, Q8NI35
Sequence of Inadl_9, Q8NI35 (Q8NI35 1530-1615): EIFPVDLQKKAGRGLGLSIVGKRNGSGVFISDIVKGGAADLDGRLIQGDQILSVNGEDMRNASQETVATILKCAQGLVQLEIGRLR

[13] = target: LIMK2, P53671
Sequence of LIMK2, P53671 (P53671 143-248): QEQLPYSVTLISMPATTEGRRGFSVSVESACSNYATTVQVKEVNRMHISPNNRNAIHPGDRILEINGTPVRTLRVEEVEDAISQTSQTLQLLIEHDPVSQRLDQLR

[14] = target: LNX1_2, Q8TBB1
Sequence of LNX1_2, Q8TBB1 (Q8TBB1 371-470): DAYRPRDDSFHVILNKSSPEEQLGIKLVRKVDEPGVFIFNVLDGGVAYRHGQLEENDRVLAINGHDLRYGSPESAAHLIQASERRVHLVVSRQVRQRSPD

[15] = target: LNX1_3, Q8TBB1
Sequence of LNX1_3, Q8TBB1 (Q8TBB1 500-596): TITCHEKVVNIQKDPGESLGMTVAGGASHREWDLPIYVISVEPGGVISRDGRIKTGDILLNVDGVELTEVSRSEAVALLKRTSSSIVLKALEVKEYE

[16] = target: T3, LNX2_2, Q8N448
T3 sequence (Q8N448 334-432, limits assumed, looked up): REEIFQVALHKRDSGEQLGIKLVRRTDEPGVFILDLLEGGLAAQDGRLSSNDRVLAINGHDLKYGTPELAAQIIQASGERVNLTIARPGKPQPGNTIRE

[17] = target: MAGI2_3, Q86UL8
Sequence of MAGI2_3, Q86UL8 (Q86UL8 600-682): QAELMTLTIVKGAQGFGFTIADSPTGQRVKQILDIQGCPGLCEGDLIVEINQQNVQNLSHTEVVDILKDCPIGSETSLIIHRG

[18] = target: MAGI2_4, Q86UL8
Sequence of MAGI2_4, Q86UL8 (Q86UL8 772-865): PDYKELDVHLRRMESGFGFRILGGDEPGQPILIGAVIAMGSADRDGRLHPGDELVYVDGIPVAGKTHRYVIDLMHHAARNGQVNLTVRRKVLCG

[19] = target: MAST1, Q9Y2H9
Sequence of MAST1, Q9Y2H9 (Q9Y2H9 962-1065): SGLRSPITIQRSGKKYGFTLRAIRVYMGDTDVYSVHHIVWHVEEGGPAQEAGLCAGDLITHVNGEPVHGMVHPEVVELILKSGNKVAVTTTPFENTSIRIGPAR

[20] = target: MAST2, Q6P0Q8
Sequence of MAST2, Q6P0Q8 (Q6P0Q8 1099-1202): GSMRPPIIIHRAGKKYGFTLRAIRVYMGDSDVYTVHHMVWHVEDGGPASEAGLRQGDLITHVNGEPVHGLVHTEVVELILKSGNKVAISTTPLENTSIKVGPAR

[21] = target: NHERF4_2, Q86UT5
Sequence of NHERF4_2, Q86UT5 (Q86UT5 220-308): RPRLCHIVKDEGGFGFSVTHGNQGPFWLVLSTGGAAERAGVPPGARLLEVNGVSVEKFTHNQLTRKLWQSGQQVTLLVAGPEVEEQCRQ

[22] = target: T4, PDZD7_3, Q9H5P4
T4 sequence (Q9H5P4 857-944, limits assumed, looked up): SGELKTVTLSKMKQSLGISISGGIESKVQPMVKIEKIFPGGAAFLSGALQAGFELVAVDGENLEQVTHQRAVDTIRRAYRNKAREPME

[23] = target: T5, PDZRN3_1, Q9UPQ7
T5 sequence (Q9UPQ7 244-349, limits assumed, looked up): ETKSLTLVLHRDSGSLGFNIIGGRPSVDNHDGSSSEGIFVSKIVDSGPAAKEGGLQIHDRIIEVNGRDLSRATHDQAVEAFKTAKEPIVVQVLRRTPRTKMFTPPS

[24] = target: PDZRN4_1, Q6ZMN7
Sequence of PDZRN4_1, Q6ZMN7 (Q6ZMN7 213-318): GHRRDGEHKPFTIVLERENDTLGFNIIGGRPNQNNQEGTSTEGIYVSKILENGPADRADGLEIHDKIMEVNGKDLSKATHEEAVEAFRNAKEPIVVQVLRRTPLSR

[25] = target: T6, RADIL, Q96JH8
T6 sequence (Q96JH8 971-1071, limits assumed, looked up): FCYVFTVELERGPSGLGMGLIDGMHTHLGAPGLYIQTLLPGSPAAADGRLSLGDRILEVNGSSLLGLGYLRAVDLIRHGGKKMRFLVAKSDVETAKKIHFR

[26] = target: T7, RHPN1, Q8TCX5
T7 sequence (Q8TCX5 508-602, limits assumed, looked up): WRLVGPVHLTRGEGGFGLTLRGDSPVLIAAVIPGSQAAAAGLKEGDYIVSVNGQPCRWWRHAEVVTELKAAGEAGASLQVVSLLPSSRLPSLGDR

[27] = target: T8, SNTG2, Q9NY99
T8 sequence (Q9NY99 68-166, limits assumed, looked up): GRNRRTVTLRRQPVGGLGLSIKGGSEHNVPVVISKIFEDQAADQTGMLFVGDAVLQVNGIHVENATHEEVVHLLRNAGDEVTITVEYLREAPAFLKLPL

[28] = target: TJP1_2, Q07157
Sequence of TJP1_2, Q07157 (Q07157 181-274): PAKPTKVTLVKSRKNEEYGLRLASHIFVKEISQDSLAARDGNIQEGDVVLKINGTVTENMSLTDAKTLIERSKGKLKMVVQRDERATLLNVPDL

[29] = target: TJP2_1, Q9UDY2
Sequence of TJP2_1, Q9UDY2 (Q9UDY2 24-128): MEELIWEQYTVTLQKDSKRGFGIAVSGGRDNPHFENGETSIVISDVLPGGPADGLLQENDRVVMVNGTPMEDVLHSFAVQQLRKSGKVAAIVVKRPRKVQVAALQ

[30] = plain residues with an end cap or a label only (N-terminal biotin on a linker: ttds)
[31] = plain residues with an end cap or a label only (N-terminal biotin on a linker: ahx)

pKd [1, 30]: below the threshold
pKd [2, 30]: below the threshold
pKd [3, 30]: 5.05
pKd [4, 30]: below the threshold
pKd [5, 30]: 3.82
pKd [6, 30]: 4.03
pKd [7, 30]: below the threshold
pKd [8, 30]: 3.56
pKd [9, 30]: below the threshold
pKd [10, 30]: below the threshold
pKd [11, 30]: below the threshold
pKd [12, 30]: 3.66
pKd [13, 30]: below the threshold
pKd [14, 30]: 3.62
pKd [15, 30]: below the threshold
pKd [16, 30]: 4.66
pKd [17, 30]: 4.5
pKd [18, 30]: 4.75
pKd [19, 30]: 4.33
pKd [20, 30]: 4.49
pKd [21, 30]: below the threshold
pKd [22, 30]: 4.54
pKd [23, 30]: 4.67
pKd [24, 30]: 4.31
pKd [25, 30]: 3.82
pKd [26, 30]: 3.65
pKd [27, 30]: 4.17
pKd [28, 30]: below the threshold
pKd [29, 30]: 3.8
B1: NET1, Q7Z628 (peptide)
chain: SGGKRKETLV

pKd [1, 31]: below the threshold
pKd [2, 31]: below the threshold
pKd [3, 31]: below the threshold
pKd [4, 31]: below the threshold
pKd [5, 31]: below the threshold
pKd [6, 31]: below the threshold
pKd [7, 31]: below the threshold
pKd [8, 31]: below the threshold
pKd [9, 31]: below the threshold
pKd [10, 31]: below the threshold
pKd [11, 31]: 3.48
pKd [12, 31]: below the threshold
pKd [13, 31]: below the threshold
pKd [14, 31]: below the threshold
pKd [15, 31]: below the threshold
pKd [16, 31]: below the threshold
pKd [17, 31]: below the threshold
pKd [18, 31]: below the threshold
pKd [19, 31]: below the threshold
pKd [20, 31]: below the threshold
pKd [21, 31]: below the threshold
pKd [22, 31]: below the threshold
pKd [23, 31]: below the threshold
pKd [24, 31]: below the threshold
pKd [25, 31]: below the threshold
pKd [26, 31]: below the threshold
pKd [27, 31]: below the threshold
pKd [28, 31]: below the threshold
pKd [29, 31]: below the threshold
B2: PDLIM2, Q96JY6 (peptide)
chain: SAPATLSSRA

pKd [1, 30]: below the threshold
pKd [2, 30]: below the threshold
pKd [3, 30]: 3.58
pKd [4, 30]: below the threshold
pKd [5, 30]: 3.76
pKd [6, 30]: below the threshold
pKd [7, 30]: below the threshold
pKd [8, 30]: 3.59
pKd [9, 30]: below the threshold
pKd [10, 30]: below the threshold
pKd [11, 30]: below the threshold
pKd [12, 30]: 3.61
pKd [13, 30]: below the threshold
pKd [14, 30]: below the threshold
pKd [15, 30]: below the threshold
pKd [16, 30]: 3.75
pKd [17, 30]: 3.63
pKd [18, 30]: 3.91
pKd [19, 30]: 4.8
pKd [20, 30]: 5.39
pKd [21, 30]: below the threshold
pKd [22, 30]: 4.11
pKd [23, 30]: 3.53
pKd [24, 30]: below the threshold
pKd [25, 30]: 4.27
pKd [26, 30]: 4.32
pKd [27, 30]: 3.82
pKd [28, 30]: below the threshold
pKd [29, 30]: below the threshold
B3: FAT3, Q8TDW7 (peptide)
chain: FVETQHQTQV
